Measurements from publication PMC4440780, “Turning Escherichia coli into a Frataxin-Dependent Organism” (PLoS Genetics, 2015).

Legend:
[1] = target: T1, IscU_(I108M)-(his)6, E. coli IscU with the Ile108Met substitution (E. coli, UniProt P0ACD4 1-128, I108M); assay: co-elution on anion exchange chromatography (QFF); purified His-tagged proteins mixed anaerobically 1:1:1 (144 uM each) for 40 min with 4-fold excess Fe(SO4)2(NH4)2, 10-fold excess L-cysteine, 5 mM DTT in 50 mM Tris-HCl pH 8; loaded on a 1-mL QFF column, eluted with a gradient to 1 M NaCl; fractions analysed by SDS-PAGE; the single proteins elute at lower salt; settings: both partners purified
T1 construct: IscU, Fe-S cluster scaffold protein of E. coli K-12 MG1655; coding region amplified from pIscUIM and cloned NdeI/HindIII into pET21a+; the methods say the proteins were mixed with Fe(SO4)2(NH4)2, L-cysteine and DTT; By gel filtration it exists mainly as a dimer; also called IscUIM; His-tagged IscUIM; not shown: His6, C-terminal, kept

[2] = target: T2, (his)6-IscS, E. coli cysteine desulfurase IscS (E. coli, UniProt P0A6B7 1-404); assay: as above; settings: both partners purified
T2 construct: IscS, cysteine desulfurase of E. coli; not shown: His6, N-terminal, kept

B1: CyaY-(his)6, E. coli frataxin homolog CyaY (natural protein, UniProt P27838 1-106, looked up)
chain: MNDSEFHRLADQLWLTIEERLDDWDGDSDIDCEINGGVLTITFENGSKIIINRQEPLHQVWLATKQGGYHFDLKGDEWICDRSGETFWDLLEQAATQQAGETVSFR
notes: CyaY, frataxin homolog of E. coli; not shown: His6, C-terminal, kept
binding result [1]: binds | binding result [2]: binds
